{
  "source": "IntAct's records for PubMed 17643121",
  "parents": {"B1": {"name": "BRCA1-A complex subunit Abraxas 1 (Homo sapiens), Q6UWZ7 (parent)", "chain": "MEGESTSAVLSGFVLGALAFQHLNTDSDTEGFLLGEVKGEAKNSITDSQMDDVEVVYTIDIQKYIPCYQLFSFYNSSGEVNEQALKKILSNVKKNVVGWYKFRRHSDQIMTFRERLLHKNLQEHFSNQDLVFLLLTPSIITESCSTHRLEHSLYKPQKGLFHRVPLVVANLGMSEQLGYKTVSGSCMSTGFSRAVQTHSSKFFEEDGSLKEVHKINEMYASLQEELKSICKKVEDSEQAVDKLVKDVNRLKREIEKRRGAQIQAAREKNIQKDPQENIFLCQALRTFFPNSEFLHSCVMSLKNRHVSKSSCNYNHHLDVVDNLTLMVEHTDIPEASPASTPQIIKHKALDLDDRWQFKRSRLLDTQDKRSKADTGSSNQDKASKMSSPETDEEIEKMKGFGEYSRSPTF"}},
  "data": [
    {"variants_of": "B1", "settings": "with brca1_human BRCA1, P38398", "values": [
      {"variant": "S406A", "effect of a mutation on the interaction": "decreasing interaction"}
    ]}
  ]
}
